Test results from patent US20040087498A1, “Modified factor VII” (Novo Nordisk Health Care AG, priority 1991, published 2004).
Where two headings read alike, the source gives them in different places.

Assays:
[1] = target: tissue factor (thromboplastin C, rabbit brain thromboplastin) (rabbit) (UniProt P24055)
[2] = in vivo; cited from earlier work
[3] = target: purified recombinant soluble tissue factor
[4] = target: cell-surface tissue factor on baboon smooth muscle cells (baboon)
[5] = target: tissue factor preparation, saline extract of baboon brain (baboon)
[6] = tested on: Factor VII-deficient plasma; assay: One-stage clotting assay of coagulant activity; assay type: biochemical, human
Experimental: The ability of the modified Factor VII protein to inhibit clotting was measured in a one-stage clotting assay using wild-type Factor VII as a control. Recombinant proteins were prepared essentially as described above from cells cultured in media containing 5 μg/ml vitamin K. Varying amounts of the modified Factor VII (from clone 544) or recombinant wild-type Factor VII were diluted in 50 mM Tris pH 7.5, 0.1% BSA to 100 μl. The mixtures were incubated with 100 μl of Factor VII-deficient plasma (George King Bio-Medical Inc., Overland Park, Kans.) and 200 μl of thromboplastin C (Dade, Miami, Fla.; contains rabbit brain thromboplastin and 11.8 mM Ca^++). The clotting assay was performed in an automatic coagulation timer (MLA Electra 800, Medical Laboratory Automation Inc., Pleasantville, N.Y.), and clotting times were converted to units of Factor VII activity using a standard curve constructed with 1:5 to 1:640 dilutions of normal pooled human plasma (assumed to contain-one unit per ml Factor VII activity; prepared by pooling citrated […] from healthy donors). […] Factor VII activity is seen as a reduction in clotting time over control samples.

[7] = target: T1, tissue factor (thromboplastin) (Oryctolagus cuniculus, UniProt P24055); assay: One-step clotting mixing assay with a limiting amount of tissue factor; assay type: biochemical, rabbit
T1 construct: contains rabbit brain thromboplastin; purchased Dade, Miami, Fla. thromboplastin-C; host or cells: rabbit brain extract
T1 sequence (P24055 33-292): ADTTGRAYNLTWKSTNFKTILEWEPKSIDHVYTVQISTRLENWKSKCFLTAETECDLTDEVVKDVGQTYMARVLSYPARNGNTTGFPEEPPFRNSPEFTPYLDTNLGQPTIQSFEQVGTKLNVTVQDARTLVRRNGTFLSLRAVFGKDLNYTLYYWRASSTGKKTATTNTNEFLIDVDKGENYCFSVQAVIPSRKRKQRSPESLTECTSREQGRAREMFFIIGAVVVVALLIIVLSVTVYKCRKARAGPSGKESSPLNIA
Experimental: The ability of the modified Factor VII to compete with wild-type Factor VII for tissue factor and inhibit its clotting activity was assessed in a one-step clotting assay in the presence of a limiting amount of tissue factor (thromboplastin).
Clotting times were determined in a one-step assay similar to that described in Example II. A limited amount of tissue factor, a constant amount of wild type Factor VII, and increasing amounts of variant Factor VII were used in the mixing experiments. An inhibition of Factor VII/VIIa procoagulant activity would be seen as an increase in clotting time in assays containing increasing amounts of variant Factor VII.
The amount of Factor VII activity in the test samples was calculated as a percentage of a standard curve that measured Factor VII activity in normal pooled plasma. The standard curve for Factor VII activity was generated using serial dilutions of normal pooled plasma in phosphate buffered solution (PBS) that ranged from 1:5 to 1:640. For this purpose it was assumed that normal plasma contains approximately 500 ng/ml of Factor VII and this was considered to be one unit of activity. A mixture of 100 μl Factor VII-deficient plasma, 100 μl plasma dilution and 200 μl of thromboplastin-C (Dade, Miami, Fla.) was used to measure clotting time on a MLA Electra 800 automatic timer. To establish the standard curve, the results were graphed as percentage of activity (1:5=100% activity) versus clotting time in seconds.
The assay required that the medium containing the wild type and variant Factor VII be composed of less than one percent serum. The dilutions were made in PBS so that clotting times would fall along the standard curve. A minimum dilution of 1:2 was typical. The final volume was 100 μl. Two different human Factor VII Ser344→Ala variants, designated clones “#10” and “#6” were tested in the experiments.

[8] = target: T2, cell-surface tissue factor on rat smooth muscle cells (Rattus norvegicus, UniProt P42533); assay: Dose-dependent cell-surface chromogenic activity on rat smooth muscle cells; assay type: cell-based
T2 construct: endogenous in cells; host or cells: rat vascular smooth muscle cells
T2 sequence (P42533 29-295): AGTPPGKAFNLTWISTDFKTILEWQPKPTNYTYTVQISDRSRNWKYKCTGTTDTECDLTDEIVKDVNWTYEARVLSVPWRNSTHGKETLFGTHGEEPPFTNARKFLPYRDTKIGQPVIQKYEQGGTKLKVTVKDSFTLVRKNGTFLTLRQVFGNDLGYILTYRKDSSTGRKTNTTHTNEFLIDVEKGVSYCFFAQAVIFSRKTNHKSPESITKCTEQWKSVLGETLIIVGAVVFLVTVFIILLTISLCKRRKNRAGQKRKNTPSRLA
Experimental: Rat vascular smooth muscle cells were plated into 96-well culture dishes at 4,000 cells per well in growth medium supplemented with 1% fetal calf serum (as in Table 4 without 10% fetal calf serum). […] The cells were incubated with the Factor VII mixtures for 2 hours at 37° C. After incubation, the cells were washed and incubated with 50 μl of 200 nM Factor X in tris buffered saline for 5 minutes at room temperature. Each well had 25 μl of 0.5 M EDTA and 25 μl of […] S-2222 (Kabi Pharmacia) added to it, and the plates were incubated for 40 minutes at room temperature. Chromogenic activity was analyzed at 405 nm in a microplate reader as described above.

[9] = target: T3, cell-surface tissue factor on rat vascular smooth muscle cells (Rattus norvegicus, UniProt P42533); assay: Inhibition of cell-surface chromogenic activity by DEGR-Factor VIIa; assay type: cell-based; conditions: 10 nM Factor VIIa; cells stimulated with 10% fetal calf serum
T3 construct: endogenous in cells; host or cells: rat vascular smooth muscle cells
T3 sequence (P42533 29-295): T2 sequence (P42533 29-295)
Experimental: Rat vascular smooth muscle cells were plated into 96-well culture dishes as described above. The cells were cultured for 72 hours in serum free media as described above and treated with the addition of 10% fetal calf serum for 6 hours to stimulate tissue factor expression. […] The cells were incubated for 2 hours at 37° C., then washed with HEPES buffer. After washing, the cells were incubated for 5 minutes with […] per well of 200 nM Factor X in Tris-buffered saline supplemented with 5 mM CaCl2. Twenty-five microliters of 0.5 M EDTA and 25 μl of S-2222 (800 μM) chromogenic substrate (Kabi Pharmacia) were added to each well. The cells were incubated at room temperature for 40 minutes. Chromogenic activity was analyzed at 405 nm as described above.

[10] = target: T3, cell-surface tissue factor on rat vascular smooth muscle cells; assay: Factor Xa generation on rat smooth muscle cells (S-2222); assay type: cell-based; conditions: 10 nM Factor VIIa
Experimental: Vascular smooth muscle-cells were analyzed for the presence of cell-surface tissue factor by measuring the ability of the cells to stimulate the conversion of Factor X to Factor Xa using a chromogenic substrate that is specific for Factor Xa.
Rat vascular smooth muscle cells (Clowes et al., J. Clin. Invest. 93:644-651 (1994)) were plated into 96-well culture dishes (American Scientific Products, Chicago, Ill.) at 8,000 cells per well in growth media (Table 4).
After a 48 hour incubation at 37° C. the medium was changed to serum free medium (Table 5).
The cells were incubated 72 hours at 37° C. After incubation, either PDGF-BB (10 ng/ml) or 10% fetal calf serum was added to the cells to stimulate tissue factor expression (Taubman et al., J. Clin. Invest, 21:547-552, 1993). A parallel set of cells received neither PDGF nor serum to monitor for intrinsic activity of unstimulated cells. […] The cells were incubated for 2 hours at 37° C. and washed with HEPES buffer (10 mM HEPES, 137 mM NaCl, 4 mM KCl, 5 mM CaCl2, 11 mM glucose, 0.1% BSA). After washing, cells were incubated for 5 min with 50 μl per well of 200 nM plasma-purified human Factor X in a Tris-buffered saline supplemented with 5 mM CaCl2. Twenty-five microliters of 0.5 M EDTA and 25 μl of an 800 μM solution of S-2222 chromogenic substrate (Kabi Pharmacia, Franklin, Ohio) were added to each well. The plates were incubated for 40 min at room temperature, then analyzed at 405 nm using a THERMOMAX microplate reader (Molecular Devices, Menlo Park, Calif.).

[11] = target: T4, cell-surface tissue factor on rat vascular smooth muscle cells (rat) (UniProt P42533)
T4 sequence: T2 sequence (P42533 29-295)

[12] = target: T4, cell-surface tissue factor on rat vascular smooth muscle cells (rat); remark: listed apart in the source
[13] = target: T4, cell-surface tissue factor on rat vascular smooth muscle cells (rat); remark: listed apart in the source
[14] = target: purified recombinant soluble tissue factor; remark: listed apart in the source
[15] = variant medium 10 μl + B4A1 (wild type) medium 10 μl
[16] = variant medium 20 μl + B4A1 (wild type) medium 10 μl
[17] = variant medium 30 μl + B4A1 (wild type) medium 10 μl
[18] = variant medium 40 μl + B4A1 (wild type) medium 10 μl
[19] = variant medium 50 μl + B4A1 (wild type) medium 10 μl

For “human Factor VII Ser344→Ala variant (from UniProt P08709) (enzyme)”, the Percent FVIIa Activity [1] was 28%.

For heparin, the half-life [2] is given as “approximately 80 minutes”.

In the case of “DEGR-Factor VIIa (from UniProt P08709) (enzyme)”, the OD405 (Factor Xa chromogenic activity, S-2222) [3] is reported as 0.055 OD405, the inhibition of Factor Xa chromogenic activity on baboon smooth muscle cells [4] is reported as greater than 90% and the Clotting time [5] is reported as 158 s.

With “Wild-type Factor VII: recombinant wild-type Factor VII used as a control” the “Clotting time” value ([6]; dilution 1:20) was 19.0 s, the “Clotting time” value ([6]; dilution 1:40) was 21.5 s and the “Clotting time” value ([6]; dilution 1:80) was 23.3 s.

With “Modified Factor VII (#6): human Factor VII Ser344→Ala variant, clone #6” the “Clotting time” value ([6]; dilution 1:1) was 33.5 s, the “Percent FVIIa Activity” value [7, 15] was 74% and the “Percent FVIIa Activity” value [7, 16] was 56%. The “Percent FVIIa Activity” value [7, 17] was 46%, the “Percent FVIIa Activity” value [7, 18] was 41% and the “Percent FVIIa Activity” value [7, 19] was 32%.

With “Factor VIIa: Recombinant human Factor VIIa, activated two-chain form [reference compound]” the OD405 ([8]; Factor VIIa 1.56 nM alone) was “.058”, the OD405 ([8]; Factor VIIa 6.25 nM alone) was “.111” and the OD405 ([8]; Factor VIIa 25.00 nM alone) was “.154”. For the same molecule, the OD405 ([8]; Factor VIIa 100.00 nM alone) was “.208”, the OD405 ([8]; Factor VIIa .10 nM alone) was “.005” and the OD405 ([8]; Factor VIIa .39 nM alone) was “.025”. For the same molecule, the OD405 [9] was “.342”, the OD405 ([10]; Intrinsic (unstimulated cells)) was “.247” and the OD405 ([10]; cells stimulated with 10% FCS) was “.342”. The OD405 ([10]; cells stimulated with PDGF-BB (10 ng/ml)) was “.360”.

For “Modified Factor VII (#10): human Factor VII Ser344→Ala variant, clone #10”, the “Clotting time” value ([6]; dilution 1:1) was 32.5 s, the “Percent FVIIa Activity” value [7, 15] was 70% and the “Percent FVIIa Activity” value [7, 16] was 51%. The “Percent FVIIa Activity” value [7, 17] was 43%, the “Percent FVIIa Activity” value [7, 18] was 34% and the “Percent FVIIa Activity” value [7, 19] was 28%.

For “recombinant human Factor VIIa (from UniProt P08709) (enzyme)”, the OD405 (Factor Xa chromogenic activity, S-2222) [11] was 0.208 OD405, the OD405 (Factor Xa chromogenic activity, S-2222) [12] was 0.36 OD405 and the OD405 (Factor Xa chromogenic activity, S-2222) [13] was 0.342 OD405. The OD405 (Factor Xa chromogenic activity, S-2222) [14] was 0.79 OD405.

“human Factor VII Ser344→Ala variant expressed without vitamin K (from UniProt P08709) (enzyme)” showed a Percent FVIIa Activity [1] of 78%.

B1: #10 (−K): Ser344→Ala variant clone #10 expressed by cells grown without vitamin K (protein, UniProt P08709 1-466, looked up, variant S344A)
chain: MVSQALRLLCLLLGLQGCLAAGGVAKASGGETRDMPWKPGPHRVFVTQEEAHGVLHRRRRANAFLEELRPGSLERECKEEQCSFEEAREIFKDAERTKLFWISYSDGDQCASSPCQNGGSCKDQLQSYICFCLPAFEGRNCETHKDDQLICVNENGGCEQYCSDHTGTKRSCRCHEGYSLLADGVSCTPTVEYPCGKIPILEKRNASKPQGRIVGGKVCPKGECPWQVLLLVNGAQLCGGTLINTIWVVSAAHCFDKIKNWRNLIAVLGEHDLSEHDGDEQSRRVAQVIIPSTYVPGTTNHDIALLRLHQPVVLTDHVVPLCLPERTFSERTLAFVRFSLVSGWGQLLDRGATALELMVLNVPRLMTQDCLQQSRKVGDSPNITEYMFCAGYSDGSKDSCKGDAGGPHATHYRGTWYLTGIVSWGQGCATVGHFGVYTRVSQYIEWLQKLMRSEPRPGVLLRAPFP
modifications: expressed without vitamin K
notes: Ser344→Ala variant clone #10 expressed by cells grown without vitamin K
With B1 the “Percent FVIIa Activity” value [7, 16] was 78%.

B2: #6 (−K): Ser344→Ala variant clone #6 expressed by cells grown without vitamin K (protein, UniProt P08709 1-466, looked up, variant S344A)
chain: B1 chain
modifications: expressed without vitamin K
notes: Ser344→Ala variant clone #6 expressed by cells grown without vitamin K
In the case of B2, the “Percent FVIIa Activity” value [7, 16] is reported as 85%.
